Assay [1] has as its target misfolded dH5-III (H5 of A/Vietnam/1203/04, prolonged incubation at 5 C below the melting temperature) (influenza virus H5N1 strain A/Vietnam/1203/04). In words: ELISA epitope scanning, immobilized H5 form; scaled. (In an ELISA, binding on a coated surface is turned into a signal by an enzyme label.)
The target of assay [2] is crossbeta H5-0 (dH5-0), H5 of H5N1 strain A/Vietnam/1203/04 stock as supplied by Protein Sciences (influenza virus H5N1 strain A/Vietnam/1203/04). Described as above.
The target in assay [3] is misfolded dH5-I (H5 of A/Vietnam/1203/04, heat cycling at pH 7) (influenza virus H5N1 strain A/Vietnam/1203/04). The description is as above.
The target of assay [4] is misfolded dH5-II (H5 of A/Vietnam/1203/04, heat cycling at pH 2) (influenza virus H5N1 strain A/Vietnam/1203/04). The assay is described as above.
The target in assay [5] is fdH5-0, ultrafiltrated dH5-0 (H5 of A/Vietnam/1203/04) (influenza virus H5N1 strain A/Vietnam/1203/04). Described as above.
For assay [6], the target named is cdH5-0, crossbeta H5 (A/Vietnam/1203/04) after centrifugation (influenza virus H5N1 strain A/Vietnam/1203/04). The assay is described as above.
The target of assay [7] is non-treated H5 of H5N1 strain A/Vietnam/1203/04 (nH5), Protein Sciences (influenza virus H5N1 strain A/Vietnam/1203/04). In words: ELISA, coated nH5 overlayed with 1:2000 diluted antibody.
In assay [8] the target is misfolded dH5-III (H5 of A/Vietnam/1203/04, prolonged incubation at 5 C below the melting temperature) (influenza virus H5N1 strain A/Vietnam/1203/04). In words: ELISA, immobilized H5 form; normalized to cdH5-0.
The target of assay [9] is misfolded dH5-I (H5 of A/Vietnam/1203/04, heat cycling at pH 7) (influenza virus H5N1 strain A/Vietnam/1203/04). As to the kind of experiment: ELISA, immobilized H5 form; normalized to cdH5-0.
Assay [10] deals with misfolded dH5-II (H5 of A/Vietnam/1203/04, heat cycling at pH 2) (influenza virus H5N1 strain A/Vietnam/1203/04). In words: ELISA, immobilized H5 form; normalized to cdH5-0.
Assay [11] addresses fdH5-0, ultrafiltrated dH5-0 (H5 of A/Vietnam/1203/04) (influenza virus H5N1 strain A/Vietnam/1203/04). As to the kind of experiment: ELISA, immobilized H5 form; normalized to cdH5-0.
Assay [12] has as its target cdH5-0, crossbeta H5 (A/Vietnam/1203/04) after centrifugation (influenza virus H5N1 strain A/Vietnam/1203/04). In words: ELISA, immobilized H5 form; normalized to cdH5-0.
Assay [13] addresses crossbeta H5-0 (dH5-0), H5 of H5N1 strain A/Vietnam/1203/04 stock as supplied by Protein Sciences (influenza virus H5N1 strain A/Vietnam/1203/04). In words: ELISA, immobilized H5 form; normalized to cdH5-0; average of two measurements.
For assay [14] the target is unchanged. As to the kind of experiment: ELISA, immobilized H5 form, tPA with excess epsilon-amino caproic acid.
Assay [15] has as its target misfolded dH5-II (H5 of A/Vietnam/1203/04, heat cycling at pH 2) (influenza virus H5N1 strain A/Vietnam/1203/04). Described as above.
For assay [16], the target named is fdH5-0, ultrafiltrated dH5-0 (H5 of A/Vietnam/1203/04) (influenza virus H5N1 strain A/Vietnam/1203/04). The assay is described as above.
Assay [17] deals with cdH5-0, crossbeta H5 (A/Vietnam/1203/04) after centrifugation (influenza virus H5N1 strain A/Vietnam/1203/04). Described as above.

With “Rockland anti-H5 A/VN/1203/04 mouse monoclonal antibody, catalogue number 200-301-975”, the relative affinity kD in [1] was determined as 78 a.u; in [2] it was 102 a.u; in assay [3] it was 47 a.u; in assay [4], 79 a.u; in [5], 103 a.u; in assay [6], 100 a.u. For the same substance, the ELISA signal at 1:2000 antibody dilution in assay [7] was found to be 1.5.

As to “fourth and fifth finger domain of fibronectin (Fn F4-5) with C-terminal FLAG-tag (from UniProt P02751 184-273)”, the Normalized affinity, kD (%) in [8] is 6%; in [9] it was 0%; in assay [10], 88%; in assay [11], 69%; in assay [12], 100%; in [13] it was 103%.

For the substance “Rockland anti-H5 A/VN/1203/04 mouse monoclonal antibody, catalogue number 200-301-976”, the relative affinity kD in [1] was determined as 127 a.u; in assay [2], 88 a.u; in assay [3], 0 a.u; in [4], 132 a.u; in [5], 105 a.u; in [6], 100 a.u.

Consider “Rockland anti-H5 A/VN/1203/04 mouse monoclonal antibody, catalogue number 200-301-979”, for which the relative affinity kD is 126 a.u in assay [1]; 103 a.u in assay [2]; 125 a.u in assay [3]; 83 a.u in assay [4]; 97 a.u in [5]; 100 a.u in assay [6].

For orientation: Kd means the concentration at which binding is half-saturated. Consider “tissue type plasminogen activator (tPA; Actilyse, Boehringer-Ingelheim) (from UniProt P00750 36-562) (enzyme)”, for which the Kd in assay [14] turned out to be 96 nM; in [15] it was 19 nM; in assay [16] it was 342 nM; in [17], 102 nM.

On to “Rockland anti-H5 A/VN/1203/04 mouse monoclonal antibody, catalogue number 200-301-977”, for which the relative affinity kD in assay [1] was 35 a.u; in assay [2] it was 98 a.u; in assay [3], 0 a.u; in assay [4], 0 a.u; in assay [5], 93 a.u; in assay [6] it was 100 a.u.

Regarding “Rockland anti-H5 A/VN/1203/04 mouse monoclonal antibody, catalogue number 200-301-978”, the relative affinity kD in assay [1] came out at 112 a.u; in assay [2] it was 85 a.u; in assay [3], 115 a.u; in assay [4], 31 a.u; in assay [5] it was 107 a.u; in [6], 100 a.u.

(Values after patent US20110052564A1.)
